First the molecules themselves.
B1: DL309 mouse monoclonal antibody (antibody, mouse IgG1, kappa)
heavy: QVQLQQSGGDLMKPGASVKISCKAAGYTFSNYYIEWVKQRPGHGLEWIGEILPGSGSTTYNEKFKGKASFTADTSSNTAYMQLSSLTSEDSAVYYCARWGAREPGFPYWGQGTLVTVSAAKTTPPSVYPLAPGSAAQTNSMVTLGCLVKGYFPEPVTVTWNSGSLSSGVHTFPAVLQSDLYTLSSSVTVPSSTWPSETVTCNVAHPASSTKVDKKIVPRDCGCKPCICTVPEVSSVFIFPPKPKDVLTITLTPKVTCVVVDISKDDPEVQFSWFVDDVEVHTAQTQPREEQFNSTFRSVSELPIMHQDWLNGKEFKCRVNSAAFPAPIEKTISKTKGRPKAPQVYTIPPPKEQMAKDKVSLTCMITDFFPEDITVEWQWNGQPAENYKNTQPIMNTNGSYFVYSKLNVQKSNWEAGNTFTCSVLHEGLHNHHTEKSLSHSPGK
light: DIVMTQSQKFMSTSVGDRVSVTCKASQNVGTNVAWYQQKPGQSPKALIYSASYRYSGVPDRFTGSGSGTDFTLTISNVQSEDLAEYFCQQYNNYPLTFGAGTKLELKRADAAPTVSIFPPSSEQLTSGGASVVCFLNNFYPKDINVKWKIDGSERQNGVLNSWTDQDSKDSTYSMSSTLTLTKDEYERHNSYTCEATHKTSTSPIVKSFNRNEC
notes: also called DL309 mouse antibody
B2: DL312 mouse monoclonal antibody (antibody, mouse IgG1, kappa)
heavy: EVKLVESGGGLVQPGGSLSLSCAASGFTFTDYYMNWVRQPPGKALEWLALIRNKANGYTTEYNASVKGRFTISRDNSQNILYLQMNALRAEDSATYYCARDSDGYYEYYFDYWGQGTTLTVSSAKTTPPSVYPLAPGSAAQTNSMVTLGCLVKGYFPEPVTVTWNSGSLSSGVHTFPAVLQSDLYTLSSSVTVPSSTWPSETVTCNVAHPASSTKVDKKIVPRDCGCKPCICTVPEVSSVFIFPPKPKDVLTITLTPKVTCVVVDISKDDPEVQFSWFVDDVEVHTAQTQPREEQFNSTFRSVSELPIMHQDWLNGKEFKCRVNSAAFPAPIEKTISKTKGRPKAPQVYTIPPPKEQMAKDKVSLTCMITDFFPEDITVEWQWNGQPAENYKNTQPIMNTNGSYFVYSKLNVQKSNWEAGNTFTCSVLHEGLHNHHTEKSLSHSPGK
light: DIQMTQSPSSLSASLGERVSLTCRASQEISDYLSWLQQKPDGTIKRLIFAASTLDSGVPKRFSGSRSGSDFSLSISSLESEDFADYYCLQYASYPYTFGSGTKLEIKRADAAPTVSIFPPSSEQLTSGGASVVCFLNNFYPKDINVKWKIDGSERQNGVLNSWTDQDSKDSTYSMSSTLTLTKDEYERHNSYTCEATHKTSTSPIVKSFNRNEC
notes: also called D312; DL312 mouse antibody
B3: DL306 mouse monoclonal antibody (antibody, mouse IgG1, kappa)
heavy: EVQLQQSGPELVKPGASVKMSCRASGYTFTDYYMKWVKQSHGKSLEWIGDINPNNGDTFYNQKFKGKATLTIDKSSSTAYMQLNSLTSDDSAVYYCARDGNYAYFDYWGQGTTLTVSSAKTTPPSVYPLAPGSAAQTNSMVTLGCLVKGYFPEPVTVTWNSGSLSSGVHTFPAVLQSDLYTLSSSVTVPSSTWPSETVTCNVAHPASSTKVDKKIVPRDCGCKPCICTVPEVSSVFIFPPKPKDVLTITLTPKVTCVVVDISKDDPEVQFSWFVDDVEVHTAQTQPREEQFNSTFRSVSELPIMHQDWLNGKEFKCRVNSAAFPAPIEKTISKTKGRPKAPQVYTIPPPKEQMAKDKVSLTCMITDFFPEDITVEWQWNGQPAENYKNTQPIMNTNGSYFVYSKLNVQKSNWEAGNTFTCSVLHEGLHNHHTEKSLSHSPGK
light: DIVLTQSPASLAVSLGQRATISCRASKSVSTSGYSYMHWYQQKPGQPPKLLIFLASNLESGVPARFSGSGSGTDFTLNIHPVEEEDAATYYCQHSRHLPWTFGGGTKLEIKRADAAPTVSIFPPSSEQLTSGGASVVCFLNNFYPKDINVKWKIDGSERQNGVLNSWTDQDSKDSTYSMSSTLTLTKDEYERHNSYTCEATHKTSTSPIVKSFNRNEC
notes: also called DL306 mouse antibody
B4: DL301 mouse monoclonal antibody (antibody, mouse IgG1, kappa)
heavy: QVQLQQSGADLVRPGTSVKVSCKASGYAFTNYLIEWIKQRPGQGLEWIGVMNPGSGGTHYSEKFRGKATLTADKSSSTAYMQLISLTSDDSAVYFCARSDYDYVTYAMDYWGQGTSVTVSSAKTTPPSVYPLAPGSAAQTNSMVTLGCLVKGYFPEPVTVTWNSGSLSSGVHTFPAVLQSDLYTLSSSVTVPSSTWPSETVTCNVAHPASSTKVDKKIVPRDCGCKPCICTVPEVSSVFIFPPKPKDVLTITLTPKVTCVVVDISKDDPEVQFSWFVDDVEVHTAQTQPREEQFNSTFRSVSELPIMHQDWLNGKEFKCRVNSAAFPAPIEKTISKTKGRPKAPQVYTIPPPKEQMAKDKVSLTCMITDFFPEDITVEWQWNGQPAENYKNTQPIMNTNGSYFVYSKLNVQKSNWEAGNTFTCSVLHEGLHNHHTEKSLSHSPGK
light: DIKMTQSPSSMYASLGERVTITCKASQDINSYLIWFQQKPGKSPKTLIYRTNRLVDGVPSRFSGSGSGQDYSLTISSLEYGDMGIYYCLQYDEFPFTFGSGTKLEIKRADAAPTVSIFPPSSEQLTSGGASVVCFLNNFYPKDINVKWKIDGSERQNGVLNSWTDQDSKDSTYSMSSTLTLTKDEYERHNSYTCEATHKTSTSPIVKSFNRNEC
notes: also called DL301 mouse antibody

The target in the first test is T1, human DLL3-Fc (human).
T1 construct: also called soluble DLL3 protein
T1 chain: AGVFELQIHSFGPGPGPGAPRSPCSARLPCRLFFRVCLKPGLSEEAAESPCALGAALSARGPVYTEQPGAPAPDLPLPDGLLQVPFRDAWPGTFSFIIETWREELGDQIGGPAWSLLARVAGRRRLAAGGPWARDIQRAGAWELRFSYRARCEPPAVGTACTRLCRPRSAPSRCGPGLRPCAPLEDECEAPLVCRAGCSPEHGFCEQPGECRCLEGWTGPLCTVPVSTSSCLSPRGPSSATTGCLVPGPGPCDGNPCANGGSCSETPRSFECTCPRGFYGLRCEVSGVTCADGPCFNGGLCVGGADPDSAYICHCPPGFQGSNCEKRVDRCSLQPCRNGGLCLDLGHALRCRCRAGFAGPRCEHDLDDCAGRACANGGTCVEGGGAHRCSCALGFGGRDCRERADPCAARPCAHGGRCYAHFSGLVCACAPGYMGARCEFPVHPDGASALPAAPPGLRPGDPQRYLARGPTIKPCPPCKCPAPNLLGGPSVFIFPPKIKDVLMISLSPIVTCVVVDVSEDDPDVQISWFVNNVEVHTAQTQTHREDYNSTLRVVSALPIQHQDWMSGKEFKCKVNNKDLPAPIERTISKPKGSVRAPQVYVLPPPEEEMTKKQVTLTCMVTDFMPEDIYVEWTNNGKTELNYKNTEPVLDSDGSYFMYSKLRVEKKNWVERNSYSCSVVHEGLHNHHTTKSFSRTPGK
The experiment in a line: ELISA, immobilized human DLL3-Fc. As for the experimental part:
The competition of a chimeric antibody and a mouse antibody for binding to the antigen molecule was analyzed by ELISA (FIG. 8 (b)). Human DLL3-Fc was added at 10 ng/well to a Nunc immunoplate and immobilized thereon. A mixture (final concentration: 50 ng/ml) of the chimeric antibody and the appropriately diluted mouse antibody was added to the DLL3-Fc protein-immobilized plate. The plate was incubated at room temperature for 1 hour and then washed. Alkaline phosphatase-labeled anti-human antibodies were added thereto and incubated. After the incubation, Sigma 104 was added thereto, and the absorbance was measured. The binding of the chimeric antibody to the antigen molecule competed with that of the original mouse monoclonal antibody thereto.
For orientation: In an ELISA, binding on a coated surface is turned into a signal by an enzyme label.
As to B1, the binding result is “binds”.
Same read-out and setting: next, B2: “binds”; B3: “binds”; B4: “binds”.

Another test addresses T2, human DLL3 expressed on cells (human DLL3/BaF3) (human, UniProt Q9NYJ7 27-618).
T2 construct: Full-length human DLL3 on the membrane of transformed Ba/F3 cells; The ADCC assays also used NCI-H1184 small-cell lung cancer cells that express DLL3; also called Delta-like 3; NM_016941
T2 sequence: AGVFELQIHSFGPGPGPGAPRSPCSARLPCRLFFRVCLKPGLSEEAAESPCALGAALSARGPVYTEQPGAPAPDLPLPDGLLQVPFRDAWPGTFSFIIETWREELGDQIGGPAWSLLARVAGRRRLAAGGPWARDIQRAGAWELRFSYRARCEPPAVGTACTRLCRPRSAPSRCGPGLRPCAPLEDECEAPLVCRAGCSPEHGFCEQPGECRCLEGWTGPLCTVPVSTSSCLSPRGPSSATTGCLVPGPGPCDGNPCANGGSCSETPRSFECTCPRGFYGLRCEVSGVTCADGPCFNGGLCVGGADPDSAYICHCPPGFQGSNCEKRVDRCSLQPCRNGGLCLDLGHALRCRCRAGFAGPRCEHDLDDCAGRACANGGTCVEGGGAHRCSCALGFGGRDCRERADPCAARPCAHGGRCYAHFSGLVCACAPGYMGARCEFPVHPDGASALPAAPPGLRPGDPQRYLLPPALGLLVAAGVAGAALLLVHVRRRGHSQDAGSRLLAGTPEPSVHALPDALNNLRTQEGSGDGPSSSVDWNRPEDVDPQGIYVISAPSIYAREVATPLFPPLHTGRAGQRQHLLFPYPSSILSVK
The experiment in a line: flow cytometry on human DLL3/BaF3 cells, antibody 5 µg/ml. As for the experimental part:
The binding of each monoclonal antibody to human DLL3 expressed on a cell membrane and the behavior of a human DLL3-monoclonal antibody complex on the cell membrane were analyzed by flow cytometry. Human DLL3/BaF3 cells were suspended in a FACS buffer (PBS containing 1% fetal bovine serum and 0.05% sodium azide). The cell suspension of 1×10⁶ cells/ml was reacted with the monoclonal antibody (final concentration: 5 μg/ml) at 4° C. for 30 minutes. After centrifugation and supernatant removal, the cells were washed once with a FACS buffer. FITC-labeled anti-mouse IgG (H+L) antibodies (Beckman Coulter, Inc.) were added thereto and incubated at 4° C. for 30 minutes. Unreacted FITC antibodies were removed by centrifugation. Then, the cells were resuspended and analyzed using a flow cytometer FACSCalibur (Becton, Dickinson and Company). For the purpose of analyzing the movement or disappearance of the DLL3-antibody complex from the cell membrane, human DLL3/BaF3 cells were suspended in an RPMI1640 culture medium containing 10% fetal bovine serum (FBS) and mouse IL3. The cell suspension of 1×10⁶ cells/ml was mixed with the monoclonal antibody (final concentration: 5 μg/ml) and reacted at 37° C. for 1 hour or 4 hours in a CO2 incubator. After the reaction, the amount of the antibody bound onto the cell membrane was analyzed by flow cytometry in the same way as above. The geometric mean of fluorescence intensity values (X Geo Mean) in a cell histogram plot was determined using the analytical software CELLQuest Pro included in FACSCalibur. All the isolated anti-DLL3 monoclonal antibodies bound to DLL3 on the cells (FIG. 3(a)). The reaction of the antibody with the cells at 4° C. inhibits membrane fluidity such as the cellular uptake of the DLL3-antibody complex from the cell membrane. The reaction of the antibody with the cells at 37° C. may cause the cellular uptake of the DLL3-antibody complex and shading (release from the cell membrane) resulting from protease digestion or the like. The amount of each monoclonal antibody bound onto the cell membrane as a result of incubation at 37° C. for 1 hour or 4 hours is shown in FIG. 3(b) as a relative value compared with that at 4° C. As a result of incubation at 37° C., the amount of the antibody DL303, DL304, DL305, DL308, DL309, or MAB4315 on the surface of the cell membrane was decreased.
(Flow cytometry measures light scatter and fluorescence of single cells or particles in a stream.)
In the case of B1, the binding result is listed as “binds”.
With B2, the binding result is on record as “binds”.
As to B3, the binding result was “binds”.
On the same count and under the same terms, as for B4, the entry is “binds”.

For the origin of these results see patent US20250236679A1 (Chugai, published 2025).
